To fix the notation:
B1: glmS ribozyme (parent)
chain: AUAAAAGCGCCAGAACUACAGAAAUGUAGUUGACGAGGAGGAGGUUUAUCGAAUUUUCGGCGGAUGCCUCCAAA

Data on 32 variants can be found in the supplement of paper PMC7125110.

± gives the standard error. Fewer inactive variants are shown than the library holds.

The variants in one data set derive from B1. Kind of data set: self-cleavage kobs at 2500 uM GlcN6P; higher = faster cleavage; RNA array. To be noted: with glucosamine-6-phosphate. In short, it runs like this: (§1)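 Weighted Michaelis–Menten fits across concentrations supplied kcat and KM, based on kobs from one- or two-exponential decay fits to normalised per-tile medians. The data came from barcoded ribozyme variants transcribed in situ by E. coli RNA polymerase on sequenced MiSeq chips and tracked at 37 °C by a hybridised Cy3 probe. Glucosamine-6-phosphate (40 μM to 10 mM) in HEPES/KCl/Mg(OAc)2 buffer was flowed in.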
On to AUAAAAGCGCCAGAACUACAGAAAUGUAGUUGACGAGGAGAAGGUUUAUCGAGUAUUCGGCGGAUGCCUCCAAA [G41A A53G U55A], for which the “self-cleavage kobs at 2500 uM GlcN6P” value is 0.000666 ± 0.00022 s⁻¹. The same measure, in the same setting: as for AUAAAAGUGCCAGAACUACAGAAAUGUAGUUGACGAGGAGGAGGUUUAUCUAAUUUCCGGCGGAUGCCUCCAAA [C8U G51U U57C], the figure is < 1e-05 s⁻¹; as for AUAAAAGCGCCUGAACUACAGAAAUGUAGUUGACGGGGAGGAGGUUUAUCGCAUUUUCGGCGGAUGUCUCUAAA [A12U A36G A52C C67U C71U], < 1e-05 s⁻¹.

As for AUAAAAGCGCCAGAACUACAGAAAUGUAGUUGACGCGGAGUAUGUUUAUCCAAUUUUGGACGGAUGACUCCAAA [A36C G41U G43U G51C C58G G60A C67A], the “self-cleavage kobs at 2500 uM GlcN6P” value is < 1e-05 s⁻¹.

In the case of AUAAAAGCGCCAGAACUACAGAAAUGUAGUUGACGAUGAGGAGGUUUAUCGACUUUUCGGCGGAUGCCUCCAAA [G37U A53C], the “self-cleavage kobs at 2500 uM GlcN6P” value was < 1e-05 s⁻¹. Still for that read-out and setting: as for AUAAAAGCGCCAGAACUACAGAAAUGUAGUUGACGAGGACGAGGUUUAUCGAAUUUUCGGCGGUUGCUUCCAAA [G40C A64U C68U], the figure is < 1e-05 s⁻¹.

Take AUAAAAGCGCCAGAACUACAGAAAUGUAGUUGACGAGGAGGAUGUUUUUCGAAUUUUCGGCAGAUGACUCCAAA [G43U A48U G62A C67A]: the “self-cleavage kobs at 2500 uM GlcN6P” value is < 1e-05 s⁻¹.

For AUAAAAGCGCCAGAACUACAGAAAUGUAGUUGACGAGGAGGAGGUGUAUCGAAUUUUCCGCGGAUGCUUACAAA [U46G G59C C68U C70A], the “self-cleavage kobs at 2500 uM GlcN6P” value is < 1e-05 s⁻¹.

With AUAAAAGCGCCUGUACUACAGAAAUGUACUUGACGAGGAGGAGGUUUAACGAAUUUUCGGCGGAUGCCUCCAAA [A12U A14U G29C U49A], the “self-cleavage kobs at 2500 uM GlcN6P” value is < 1e-05 s⁻¹. With AUAAAAGCGCCGGAACUACAGAAAUGUAGUUGACGAGGAGGUGGUUUAUCGAAUUUUCGGCGGAUGCCACCAAA [A12G A42U U69A], the “self-cleavage kobs at 2500 uM GlcN6P” value was determined as 0.000849 ± 0.00021 s⁻¹. As for AUAAAAGCGCCAGAACUACAGAAAUGUAGUUGACGGGGAGUAGGUUUAUCGAAUUUUCGACGGAUGCCUCCAAA [A36G G41U G60A], the “self-cleavage kobs at 2500 uM GlcN6P” value was < 1e-05 s⁻¹.

Turning to AUAAAAGCGCCAGAAGUACAGAAAUGUAGCUGCCGAGGAGGAGGUUUAUCGAAUUUUCGGCGGAUGCUUCCAAA [C16G U30C A33C C68U], the “self-cleavage kobs at 2500 uM GlcN6P” value is < 1e-05 s⁻¹. Take AUAAAAGCGCCAGAACUACAGAAAUGUAGUGGACGAGGAGAAGGUUUAUCGAAUUUUCGGCGUAUGCCUCCAAA [U31G G41A G63U]: the “self-cleavage kobs at 2500 uM GlcN6P” value was < 1e-05 s⁻¹. As to AUAAAAGCGCCUGAACUACAGAAAUGUAGUUGACUAGGAGGAGGUUUAUCGAUUUUUCGGGGGACGCCUCCAAA [A12U G35U A53U C61G U65C], the “self-cleavage kobs at 2500 uM GlcN6P” value was < 1e-05 s⁻¹.

In the case of AUAAAAGCGCCAGAACUACAGAAAUGUAGUUGACGAGGACGAGGUUUAUCGAAUUCUCGGCGGAUGCCUCAAAA [G40C U56C C71A], the “self-cleavage kobs at 2500 uM GlcN6P” value was 9.43e-05 ± 2.2e-05 s⁻¹. In the case of AUAAAAGGGCCAGAAGUACAGAAAUGUAGUUGACGAGGACGAGGUUUAUCGAAUUUUCGGCGGAUGCCUCCAAA [C8G C16G G40C], the “self-cleavage kobs at 2500 uM GlcN6P” value is < 1e-05 s⁻¹. AUAAAAGCGCCAGAACUACAGAAAUGUAGUUAACGAGGAGGAGGUUUAUCGAAUUUUCGGCGGAUGCCGGUAAA [G32A U69G C70G C71U]: the “self-cleavage kobs at 2500 uM GlcN6P” value is 0.00186 ± 0.00064 s⁻¹. On to AUAAAAGCGCCAGAACUACAGAAAUGUAGUUGACGAGGAGGUGGUUUAUCGAGUUUUCGGGGGAUGCCUCCAAA [A42U A53G C61G], for which the “self-cleavage kobs at 2500 uM GlcN6P” value is < 1e-05 s⁻¹.

In the case of AUAAAAGCGCCAGAACUACAGAAAUGUAGUUGACGAGGAGGAGGUUCAUCGAAUUUUCGGCGGAUGGCUUCAAA [U47C C67G C70U], the “self-cleavage kobs at 2500 uM GlcN6P” value came out at 0.000129 ± 4.1e-05 s⁻¹. On to AUAAAACCGCGUGAACUACAGAAAUGUAGUUGACGAGGAGGAGGUUUAUCGAAUUUUCGGCGGAUGCCUCCAAA [G7C C11G A12U], for which the “self-cleavage kobs at 2500 uM GlcN6P” value was < 1e-05 s⁻¹. On the same count and under the same terms, as for AUAAAAGCGCCAGAACUACAGAAAUGUAGUUGACGAGUAGGAGGUUUAGCGAAUUUACGGCGGAUGCCUGCAAA [G38U U49G U57A C70G], the figure is 6.84e-05 ± 3.3e-05 s⁻¹. As for AUAAAGGCGCCAGAACUACAGAAAUGUAGUUGAGGAGGAAGAGGUUUAUCGAAUUUUCGGCGGAUGGCUUCAAA [A6G C34G G40A C67G C70U], the “self-cleavage kobs at 2500 uM GlcN6P” value was < 1e-05 s⁻¹. Regarding AUAAAAGCGUCAGCACUACAGAAAUGUAGUUCACGAGGAGGAGGUUUAUCGAAUUUUCGGCGGAUGCCUCCAAA [C10U A14C G32C], the “self-cleavage kobs at 2500 uM GlcN6P” value is < 1e-05 s⁻¹.

Take AUAAAAGGGCCAGAACUACAGAAAUGUAGUUGACUAGGCGGAGGUUUAUCGAAUUUUCGGCGGAUGCCUCCAAA [C8G G35U A39C]: the “self-cleavage kobs at 2500 uM GlcN6P” value was < 1e-05 s⁻¹. The same measure, in the same setting: as for AUAAAAGCGCCAGAACUACAGAAAUGUACUUGACGAGUAGGAGGUUUAUCGAAUUCUCGGCGGAUGCCUCCAAA [G29C G38U U56C], the figure is < 1e-05 s⁻¹; as for AUAAAAGCGCCAGAACUACAGAAAUGUAGAUGACGAGGAGGACGUUUAUCCAAUUUUCGGCGGAUGGCUCCAAA [U30A G43C G51C C67G], < 1e-05 s⁻¹.

As to AUAAAAGCGCCAGAGCUACAGAAAUGUAGUUGACGAGUAGGAGGUUUAUCGAAUUUACGGCUGAUGCCACCAAA [A15G G38U U57A G62U U69A], the “self-cleavage kobs at 2500 uM GlcN6P” value was 0.000891 ± 0.00032 s⁻¹.

As to AUAAAAGCGCCAGAACUACAGAAAUGUAGUUGACAAGGAGGAGGUUUAUCGAAUUUUCGGCGGAUGCCCCCAAA [G35A U69C], the “self-cleavage kobs at 2500 uM GlcN6P” value is < 1e-05 s⁻¹.

For the variant AUAAAAGCGCCAGAACUACAGAAAUGUAGUUGUAGAGAAGGAGGUUUAUAGAAUUUUCGGCGGAUGCCUGCAAA [A33U C34A G38A C50A C70G], the “self-cleavage kobs at 2500 uM GlcN6P” value worked out at 0.00153 ± 0.0004 s⁻¹.

In the case of AUAAAAGCGCCUGAACUACAGAAAUGUAGUUGACGAGGAGGAGCUUUAUCGAGUUAUCGGCGGAUGCCUCCAAA [A12U G44C A53G U56A], the “self-cleavage kobs at 2500 uM GlcN6P” value amounted to 7.9e-05 ± 2.1e-05 s⁻¹. The same measure, in the same setting: as for AUAAAAGCGCCAGAACUACAGAAAUGUAGUUCACGAGUAGGAGGUUUAUCGAAUUUUGGGCGGAUGCCUCCAAA [G32C G38U C58G], the figure is < 1e-05 s⁻¹; as for AUAAAAGCGCAAGAAAUACAGAAAUGUAGUUGACGAGGAGGCGGUUUAUCGAAUUUUCGGCGGAUGCCUCCAAA [C11A C16A A42C], < 1e-05 s⁻¹.

In another data set the parent is B1. Kind of data set: self-cleavage kobs at 10000 uM GlcN6P; higher = faster cleavage; RNA array. Conditions: with glucosamine-6-phosphate. In short, it runs like this:
as §1
With AUAAAAGCGCCAGAACUACAGAAAUGUAGUUGACGAUGAGGAGGUUUAUCGACUUUUCGGCGGAUGCCUCCAAA [G37U A53C], the “self-cleavage kobs at 10000 uM GlcN6P” value is < 1e-05 s⁻¹. With AUAAAAGCGCCAGAACUACAGAAAUGUAGUUGACGAGGACGAGGUUUAUCGAAUUUUCGGCGGUUGCUUCCAAA [G40C A64U C68U], the “self-cleavage kobs at 10000 uM GlcN6P” value was < 1e-05 s⁻¹. The same measure, in the same setting: then AUAAAAGCGCCGGAACUACAGAAAUGUAGUUGACGAGGAGGUGGUUUAUCGAAUUUUCGGCGGAUGCCACCAAA [A12G A42U U69A], with 0.00112 ± 0.00029 s⁻¹; and AUAAAAGCGCCAGAACUACAGAAAUGUAGUUGACGAGGAGGAGGUUCAUCGAAUUUUCGGCGGAUGGCUUCAAA [U47C C67G C70U], with 8.24e-05 ± 1.8e-05 s⁻¹. For the variant AUAAAAGCGCCAGAACUACAGAAAUGUAGUUGACAAGGAGGAGGUUUAUCGAAUUUUCGGCGGAUGCCCCCAAA [G35A U69C], the “self-cleavage kobs at 10000 uM GlcN6P” value is < 1e-05 s⁻¹.
